Test results taken from patent US20240343811A1 (SHANDONG SIMCERE BIOPHARMACUTICAL, published 2024).
Read-outs that look alike come from different tables or passages of the source.

T1: human CD16b (NA1), full length, on FlpinCHO cells (human, UniProt O75015 17-200)
T1 construct: also called FlpinCHO-human CD16b (NA1)
T1 chain: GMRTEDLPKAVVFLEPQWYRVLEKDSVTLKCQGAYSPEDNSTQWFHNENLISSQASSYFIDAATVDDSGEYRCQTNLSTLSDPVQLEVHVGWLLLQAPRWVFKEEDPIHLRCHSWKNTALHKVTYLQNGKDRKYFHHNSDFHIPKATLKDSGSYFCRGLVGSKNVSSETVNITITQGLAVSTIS

T2: human CD16b (NA2), full length, on FlpinCHO cells (human, UniProt O75015 17-200)
T2 construct: also called FlpinCHO-human CD16b (NA2)
T2 chain: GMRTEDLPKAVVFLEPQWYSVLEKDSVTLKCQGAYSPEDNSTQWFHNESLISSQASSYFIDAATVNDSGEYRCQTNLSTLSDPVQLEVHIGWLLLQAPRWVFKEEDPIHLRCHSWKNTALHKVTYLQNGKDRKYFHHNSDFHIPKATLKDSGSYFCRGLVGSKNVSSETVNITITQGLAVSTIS


Key:
[1] = biological target: T3, human CD16a (158V), full length, on cells (human, UniProt P08637 17-254); assay: cell-based or functional assay
[2] = biological target: T4, human CD16a (158F), full length, on FlpinCHO cells (human, UniProt P08637 17-254); assay: FACS on FlpinCHO cells
[3] = biological target: T3, human CD16a (158V), full length, on …; assay: FACS on FlpinCHO cells
Human CD16a (158F)-his = biological target: T5, Human CD16a (158F)-his (human); assay: SPR (Biacore), antibody captured on Protein A
T5 construct: entry holds ECD, AVI tag, linker and His tag
Procedure, shortened: (§1)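 Protein A–captured antibody was probed with CD16-his ECD in HBS-EP+ at 25 °C: five 2-fold dilutions from 200 nM, 240 s at 30 μL/min, dissociation up to 600 s. Glycine pH 1.5 regenerated the chip. Apparent KD came from a double-referenced 1:1 Langmuir fit.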

[4] = biological target: T6, cynomolgus monkey CD16, full length, on FlpinCHO cells (cynomolgus monkey, UniProt Q8SPW2 17-254); assay: FACS on FlpinCHO cells
T6 construct: also called FlpinCHO-cyno CD16; Flipin CHO-cyno CD16
T6 sequence (Q8SPW2 other isoform, or with tags, fused parts or gaps limits assumed): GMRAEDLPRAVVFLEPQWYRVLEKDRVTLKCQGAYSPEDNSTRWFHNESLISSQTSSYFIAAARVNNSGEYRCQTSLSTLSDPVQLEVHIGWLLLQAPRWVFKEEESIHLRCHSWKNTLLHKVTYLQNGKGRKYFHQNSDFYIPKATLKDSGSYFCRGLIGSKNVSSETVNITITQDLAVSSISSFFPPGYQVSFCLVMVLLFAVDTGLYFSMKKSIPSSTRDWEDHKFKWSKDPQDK
Method: (§2) The required cells were scale-up cultured in a T-75 cell culture flask to the logarithmic growth phase. The medium was aspirated, and the cells were washed twice with a PBS buffer and then digested with trypsin. After the digestion was terminated, the cells were washed twice with the PBS buffer. The cells were counted, and then the cell pellet was resuspended with a [PBS+2% (w/w) BSA] blocking solution to 2×10⁶ cells/ml, and added to a 96-well FACS reaction plate at 50 μl/well. […] 50 μl/well of the antibody to be detected was added at different concentrations, and incubated on ice for 1 hour. […] The mixture was centrifuged and washed 5 times with PBS, and FACS (FACS Canto II, purchased from BD Company) was used for detection and result analysis. Data analysis was performed by software (CellQuest) to obtain the mean fluorescence intensity (MFI) of the cells. Then, software (GraphPad Prism8) was used for analysis, data fitting and EC50 value calculation.
(§3) Flipin CHO-cyno CD16 cells were subjected to FACS detection and data analysis according to the method of Example 3.1.

[5] = biological target: T1, human CD16b (NA1), full length, on …; assay: FACS on FlpinCHO cells
Procedure, shortened: (§4)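 EC50 values come from fitted MFI curves measured by FACS. Antibody dilutions were bound for 1 hour on ice to CD16b-transfected FlpinCHO cells suspended in PBS with 2% BSA blocking solution.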

[6] = biological target: T2, human CD16b (NA2), full length, on …; assay: FACS on FlpinCHO cells
Procedure, shortened: as §4

[7] = biological target: T4, human CD16a (158F), full length, on …; assay: FACS, biotinylated antibody, +10 mg/mL human immunoglobulin
[8] = biological target: T3, human CD16a (158V), full length, on …; assay: as above
Human CD16a (158V)-his = biological target: T7, Human CD16a (158V)-his (human); assay: SPR (Biacore), antibody captured on Protein A
T7 construct: entry holds ECD, AVI tag, linker and His tag
Procedure, shortened: as §1

[9] = biological target: T4, human CD16a (158F), full length, on …; assay: FACS, biotinylated antibody
[10] = biological target: T3, human CD16a (158V), full length, on …; assay: FACS, biotinylated antibody
[11] = biological target: T1, human CD16b (NA1), full length, on …; assay: FACS on FlpinCHO cells
Procedure, shortened: as §4

[12] = biological target: T2, human CD16b (NA2), full length, on …; assay: FACS on FlpinCHO cells
Procedure, shortened: as §4

[13] = biological target: T6, cynomolgus monkey CD16, full length, on …; assay: FACS on FlpinCHO cells; remark: listed apart in the source
Method: as §2, §3

[14] = biological target: T3, human CD16a (158V), full length, on …; assay: cell-based or functional assay; remark: listed apart in the source
[15] = biological target: T4, human CD16a (158F), full length, on …; assay: FACS on FlpinCHO cells; remark: listed apart in the source
Procedure, shortened: (§5)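 EC50 comes from fitted concentration–MFI curves. Antibody dilutions were bound to the cells for 1 hour on ice in PBS blocking buffer with 2% BSA, followed by washing and flow cytometric readout.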

[16] = biological target: T3, human CD16a (158V), full length, on …; assay: FACS on FlpinCHO cells; remark: listed apart in the source
Procedure, shortened: as §5

[17] = biological target: T8, CD16 on primary human NK cells (human, UniProt P08637 17-254); assay: FACS on human NK cells
T8 construct: whole, on cells; also called resting NK cells
Procedure, shortened: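 EC50 came from curve fitting of flow-cytometric MFI. Antibody titrations were bound for 1 hour on ice to fresh human NK cells blocked in PBS with 2% (w/w) BSA (2×10⁶ cells/ml), followed by five PBS washes before acquisition.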

EC50, activation activity for Jurkat cell [1]	Maximum fluorescence value [1]	EC50 [2]	Maximum mean fluorescence intensity [2]	EC50 [3]	Maximum mean fluorescence intensity [3]	Kd (Human CD16a (158F)-his)	koff (Human CD16a (158F)-his)	kon (Human CD16a (158F)-his)	EC50 [4]	Maximum mean fluorescence intensity [4]	EC50 [5]	Maximum mean fluorescence intensity [5]	Maximum mean fluorescence intensity [6]	EC50 [7]	Maximum mean fluorescence intensity [7]	EC50 [8]	Maximum mean fluorescence intensity [8]	Kd (Human CD16a (158V)-his)	koff (Human CD16a (158V)-his)	Binder	also measured
0.02 nM	155000	0.48 nM	8810	0.48 nM	7750	55.7 nM	0.0244 s⁻¹	438000 M⁻¹ s⁻¹	0.8 nM	18000	1.37 nM	47300	72700	–	–	–	–	–	–	VHH12-03 humanized VHH-Fc antibody (Fc fusion) EVQLVESGGGLVQPGGSLRLSCAASGITFSSYAMGWYRQAPGKQRELVAAINRFGLTNYVDSVKGRFTISRDNAKNSLYLQMNSLRAEDTAVYYCNTGGVYSHPDYYTGTYWGQGTMVTVSSEPKSSDKTHTCPPCPAPEEFGGPSVFLFPPKPKDTLMISRTPEVTCVVVAVSHEDPEVKFNWYVDGVEVHNAKTKPREEQYNSTYRVVSVLTVLHQDWLNGKEYKCKVSNKALPAPIEKTISKAKGQPREPQVYTLPPSREEMTKNQVSLTCLVKGFYPSDIAVEWESNGQPENNYKTTPPVLDSDGSFFLYSKLTVDKSRWQQGNVFSCSVMHEALHNHYTQKSLSLSPGK	–
0.01 nM	148000	0.46 nM	7440	0.45 nM	6600	75.1 nM	0.0237 s⁻¹	316000 M⁻¹ s⁻¹	0.74 nM	16900	0.94 nM	39700	73300	–	–	–	–	–	–	VHH12-02 humanized VHH-Fc antibody (Fc fusion) EVQLVESGGGLVQPGGSLRLSCAASGITFSSYAMGWYRQAPGKQRELVAAINRFGLTYYVDSVKGRFTISRDNAKNSLYLQMNSLRAEDTAVYYCNTGGVYSHPDYYTGTYWGQGTMVTVSSEPKSSDKTHTCPPCPAPEEFGGPSVFLFPPKPKDTLMISRTPEVTCVVVAVSHEDPEVKFNWYVDGVEVHNAKTKPREEQYNSTYRVVSVLTVLHQDWLNGKEYKCKVSNKALPAPIEKTISKAKGQPREPQVYTLPPSREEMTKNQVSLTCLVKGFYPSDIAVEWESNGQPENNYKTTPPVLDSDGSFFLYSKLTVDKSRWQQGNVFSCSVMHEALHNHYTQKSLSLSPGK	–
–	–	–	–	–	–	132 nM	0.027 s⁻¹	205000 M⁻¹ s⁻¹	–	–	–	–	–	1.21 nM	6020	1.18 nM	7660	96.5 nM	0.0179 s⁻¹	VHH02 VHH-Fc antibody (Fc fusion) EVQLVESGGGLVQAGGSLRLSCATSGITFSSYAMGWYRQAPGKQRELVAGINRFGLTNYADSVKGRFTISRDNAKNTVYLQMTSLKSEDTAVYYCNTGGVYSHPNYYTGIYWGQGTQVTVSSEPKSSDKTHTCPPCPAPEFEGGPSVFLFPPKPKDTLMISRTPEVTCVVVAVSHEDPEVKFNWYVDGVEVHNAKTKPREEQYNSTYRVVSVLTVLHQDWLNGKEYKCKVSNKALPAPIEKTISKAKGQPREPQVYTLPPSREEMTKNQVSLTCLVKGFYPSDIAVEWESNGQPENNYKTTPPVLDSDGSFFLYSKLTVDKSRWQQGNVFSCSVMHEALHNHYTQKSLSLSPGK	kon (Human CD16a (158V)-his): 186000 M⁻¹ s⁻¹; EC50 [9]: 0.33 nM; Maximum mean fluorescence intensity [9]: 6310; EC50 [10]: 0.33 nM; Maximum mean fluorescence intensity [10]: 7300; EC50 [11]: 4.27 nM; Maximum mean fluorescence intensity [11]: 31900; EC50 [12]: 5.45 nM; Maximum mean fluorescence intensity [12]: 52400; EC50 [13]: 0.88 nM; Maximum mean fluorescence intensity [13]: 17100; EC50, activation activity for Jurkat cell [14]: 0.3 nM; Maximum fluorescence value [14]: 178000; EC50 [15]: 1.17 nM; Maximum mean fluorescence intensity [15]: 5210; EC50 [16]: 0.3 nM; Maximum mean fluorescence intensity [16]: 6000
–	–	–	–	–	–	25 nM	0.0296 s⁻¹	1.18e+06 M⁻¹ s⁻¹	–	–	–	–	–	0.91 nM	5070	1.1 nM	7900	19.3 nM	0.0602 s⁻¹	VHH14 VHH-Fc antibody (Fc fusion) EVQLVESGGGLVQAGGSLRLSCAASGITFSSYAMAWYRQDPGKQRELVAAINRFGLTNYADSVKGRFTISRDNAKNTVYLEMTSLKPEDTAVYYCNTGGVYSHPNYYTGTYWGQGTQVTVSSEPKSSDKTHTCPPCPAPEFEGGPSVFLFPPKPKDTLMISRTPEVTCVVVAVSHEDPEVKFNWYVDGVEVHNAKTKPREEQYNSTYRVVSVLTVLHQDWLNGKEYKCKVSNKALPAPIEKTISKAKGQPREPQVYTLPPSREEMTKNQVSLTCLVKGFYPSDIAVEWESNGQPENNYKTTPPVLDSDGSFFLYSKLTVDKSRWQQGNVFSCSVMHEALHNHYTQKSLSLSPGK	kon (Human CD16a (158V)-his): 3.12e+06 M⁻¹ s⁻¹; EC50 [17]: 0.17 nM; Maximum mean fluorescence intensity [17]: 2620; EC50 [9]: 0.27 nM; Maximum mean fluorescence intensity [9]: 5510; EC50 [10]: 0.38 nM; Maximum mean fluorescence intensity [10]: 8180; EC50 [11]: 0.93 nM; Maximum mean fluorescence intensity [11]: 41900; EC50 [12]: 1.44 nM; Maximum mean fluorescence intensity [12]: 61400; EC50 [13]: 0.18 nM; Maximum mean fluorescence intensity [13]: 16400; EC50, activation activity for Jurkat cell [14]: 0.02 nM; Maximum fluorescence value [14]: 169000; EC50 [15]: 0.23 nM; Maximum mean fluorescence intensity [15]: 5750; EC50 [16]: 0.27 nM; Maximum mean fluorescence intensity [16]: 6250
